Data taken from IntAct's records for PubMed 32439656.

B1: ER membrane protein complex subunit 2 (Homo sapiens), Q15006 (parent)
chain: MAKVSELYDVTWEEMRDKMRKWREENSRNSEQIVEVGEELINEYASKLGDDIWIIYEQVMIAALDYGRDDLALFCLQELRRQFPGSHRVKRLTGMRFEAMERYDDAIQLYDRILQEDPTNTAARKRKIAIRKAQGKNVEAIRELNEYLEQFVGDQEAWHELAELYINEHDYAKAAFCLEELMMTNPHNHLYCQQYAEVKYTQGGLENLELSRKYFAQALKLNNRNMRALFGLYMSASHIASNPKASAKTKKDNMKYASWAASQINRAYQFAGRSKKETKYSLKAVEDMLETLQITQS
partner: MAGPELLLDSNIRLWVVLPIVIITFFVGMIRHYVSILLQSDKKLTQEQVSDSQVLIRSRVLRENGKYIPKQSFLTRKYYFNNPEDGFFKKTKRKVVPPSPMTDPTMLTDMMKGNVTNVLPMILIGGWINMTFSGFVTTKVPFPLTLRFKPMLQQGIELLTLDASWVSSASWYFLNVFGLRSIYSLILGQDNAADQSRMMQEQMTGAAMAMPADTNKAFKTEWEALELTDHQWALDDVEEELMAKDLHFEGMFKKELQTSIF
B2: ER membrane protein complex subunit 2 (Homo sapiens), Q15006 (parent)
chain: B1 chain
partner: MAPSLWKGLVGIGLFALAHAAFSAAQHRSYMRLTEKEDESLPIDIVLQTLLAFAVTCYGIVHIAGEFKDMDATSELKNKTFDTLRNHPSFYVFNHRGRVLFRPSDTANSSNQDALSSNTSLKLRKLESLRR

Variants of: B1
Details: with emc3_human EMC3, Q9P0I2

| Variant | effect of a mutation on the interaction |
| --- | --- |
| MAKVSELYDVTWEEMRDKMRKWREENSANSEQIVEVGEELINEYASKLGDDIWIIYEQVMIAALDYGRDDLALFCLQELRRQFPGSHRVKRLTGMRFEAMERYDDAIQLYDRILQEDPTNTAARKRKIAIRKAQGKNVEAIRELNEYLEQFVGDQEAWHELAELYINEHDYAKAAFCLEELMMTNPHNHLYCQQYAEVKYTQGGLENLELSRKYFAQALKLNNRNMRALFGLYMSASHIASNPKASAKTKKDNMKYASWAASQINRAYQFAGRSKKETKYSLKAVEDMLETLQITQS [R28A] | with no effect |
| MAKVSELYDVTWEEMRDKMRKWREENSRNSEQIVEVGEELINEYASKLGDDIWIIYEQVMIAALDYGRDDLALFCLQELRRQFPGSHRVKRLTGMRFEAMERYDDAIQLYDRILQEDPTNTAARKRKIAIRKAQGKNVEAIRELNEYLEQFVGDQEAWHELAELYINEHDYAKAAFCLEELMMTNPHNHLYCQQYAEVKYTQGGLENLELSRKYFAQALKLNNRNMAALFGLYMSASHIASNPKASAKTKKDNMKYASWAASQINRAYQFAGRSKKETKYSLKAVEDMLETLQITQS [R227A] | disrupting interaction strength |
| MAKVSELYDVTWEEMRDKMRKWREENSRNSEQIVEVGEELINEYASKLGDDIWIIYEQVMIAALDYGRDDLALFCLQELRRQFPGSHRVKRLTGMRFEAMERYDDAIQLYDRILQEDPTNTAARKRKIAIRKAQGKNVEAIRELNEYLEQFVGDQEAWHELAELYINEHDYAKAAFCLEELMMTNPHNHLYCQQYAEVKATQGGLENLELSRKYFAQALKLNNRNMRALFGLYMSASHIASNPKASAKTKKDNMKYASWAASQINRAYQFAGRSKKETKYSLKAVEDMLETLQITQS [Y200A] | with no effect |
| MAKVSELYDVTWEEMRDKMRKWREENSRNSEQIVEVGEELINEYASKLGDDIWIIYEQVMIAALDYGRDDLALFCLQELRRQFPGSHRVKRLTGMRFEAMERYDDAIQLYDRILQEDPTNTAARKRKIAIRKAQGKNVEAIRELNEYLEQFVGDQEAWHELAELYINEHDAAKAAFCLEELMMTNPHNHLYCQQYAEVKYTQGGLENLELSRKYFAQALKLNNRNMRALFGLYMSASHIASNPKASAKTKKDNMKYASWAASQINRAYQFAGRSKKETKYSLKAVEDMLETLQITQS [Y171A] | with no effect |
| MAKVSELYDVTWEEMRDKMRKWREENSRNSEQIVEVGEELINEYASKLGDDIWIIYEQVMIAALDYGRDDLALFCLQELRRQFPGSHRVKRLTGMRFEAMERYDDAIQLYDRILQEDPTNTAARKRKIAIRKAQGKNVEAIRELNEYLEQFVGDQEAWHELAELYINEHDYAKAAFCLEALMMTNPHNHLYCQQYAEVKYTQGGLENLELSRKYFAQALKLNNRNMRALFGLYMSASHIASNPKASAKTKKDNMKYASWAASQINRAYQFAGRSKKETKYSLKAVEDMLETLQITQS [E180A] | disrupting interaction strength |
| MAKVSELYDVTWEEMRDKMRKWREENSRNSEQIVEVGEELINEYASKLGDDIWIIYEQVMIAALDYGRDDLALFCLQELRRQFPGSHRVKRLTGMRFEAMERYDDAIQLYDRILQEDPTNTAARKRKIAIRKAQGKNVEAIRELNEYLEQFVGDQEAWHELAELYINEHDYAKAAFCLEELMMTNPHNHLYCQQYAEVKYTQGGLENLELSRKYFAQALKLNNRNMRALFGLYMSASHIASNPKASAKTKKDNMKYASAAASQINRAYQFAGRSKKETKYSLKAVEDMLETLQITQS [W259A] | disrupting interaction strength |
| MAKVSELYDVTWEEMRDKMRKWREENSRNSEQIVEVGEELINEYASKLGDDIWIIYEQVMIAALDYGRDDLALFCLQELRRQFPGSHRVKRLTGMRFEAMERYDDAIQLYDRILQEDPTNTAARKRKIAIRKAQGKNVEAIRELNEYLEQFVGDQAAWHELAELYINEHDYAKAAFCLEELMMTNPHNHLYCQQYAEVKYTQGGLENLELSRKYFAQALKLNNRNMRALFGLYMSASHIASNPKASAKTKKDNMKYASWAASQINRAYQFAGRSKKETKYSLKAVEDMLETLQITQS [E156A] | with no effect |

Variants of: B2
Details: with emc5_human MMGT1, Q8N4V1

| Variant | effect of a mutation on the interaction |
| --- | --- |
| MAKVSELYDVTWEEMRDKMRKWREENSRNSEQIVEVGEELINEYASKLGDDIWIIYEQVMIAALDYGRDDLALFCLQELRRQFPGSHRVKRLTGMRFEAMERYDDAIQLYDRILQEDPTNTAARKRKIAIRKAQGKNVEAIRELNEYLEQFVGDQAAWHELAELYINEHDYAKAAFCLEELMMTNPHNHLYCQQYAEVKYTQGGLENLELSRKYFAQALKLNNRNMRALFGLYMSASHIASNPKASAKTKKDNMKYASWAASQINRAYQFAGRSKKETKYSLKAVEDMLETLQITQS [E156A] | disrupting interaction strength |
| MAKVSELYDVTWEEMRDKMRKWREENSRNSEQIVEVGEELINEYASKLGDDIWIIYEQVMIAALDYGRDDLALFCLQELRRQFPGSHRVKRLTGMRFEAMERYDDAIQLYDRILQEDPTNTAARKRKIAIRKAQGKNVEAIRELNEYLEQFVGDQEAWHALAELYINEHDYAKAAFCLEELMMTNPHNHLYCQQYAEVKYTQGGLENLELSRKYFAQALKLNNRNMRALFGLYMSASHIASNPKASAKTKKDNMKYASWAASQINRAYQFAGRSKKETKYSLKAVEDMLETLQITQS [E160A] | disrupting interaction strength |
| MAKVSELYDVTWEEMRDKMRKWREENSRNSEQIVEVGEELINEYASKLGDDIWIIYEQVMIAALDYGRDDLALFCLQELRRQFPGSHRVKRLTGMRFEAMERYDDAIQLYDRILQEDPTNTAARKRKIAIRKAQGKNVEAIRELNEYLEQFVGDQEAWHELAELYINEHDYAKAAFCLEALMMTNPHNHLYCQQYAEVKYTQGGLENLELSRKYFAQALKLNNRNMRALFGLYMSASHIASNPKASAKTKKDNMKYASWAASQINRAYQFAGRSKKETKYSLKAVEDMLETLQITQS [E180A] | with no effect |
| MAKVSELYDVTWEEMRDKMRKWREENSRNSEQIVEVGEELINEYASKLGDDIWIIYEQVMIAALDYGRDDLALFCLQELRRQFPGSHRVKRLTGMRFEAMERYDDAIQLYDRILQEDPTNTAARKRKIAIRKAQGKNVEAIRELNEYLEQFVGDQEAWHELAELYINEHDYAKAAFCLEELMMTNPHNHLYCQQYAEVKYTQGGLENLELSRKYFAQALKLNNRNMRALFGLYMSASHIASNPKASAKTKKDNMKYASAAASQINRAYQFAGRSKKETKYSLKAVEDMLETLQITQS [W259A] | with no effect |
| MAKVSELYDVTWEEMRDKMRKWREENSRNSEQIVEVGEELINEYASKLGDDIWIIYEQVMIAALDYGRDDLALFCLQELRRQFPGSHRVKRLTGMRFEAMERYDDAIQLYDRILQEDPTNTAARKRKIAIRKAQGKNVEAIRELNEYLEQFVGDQEAWHELAELYINEHDYAKAAFCLEELMMTNPHNHLYCQQYAEVKYTQGGLENLELSRKYFAQALKLNNRNMAALFGLYMSASHIASNPKASAKTKKDNMKYASWAASQINRAYQFAGRSKKETKYSLKAVEDMLETLQITQS [R227A] | disrupting interaction strength |
| MAKVSELYDVTWEEMRDKMRKWREENSANSEQIVEVGEELINEYASKLGDDIWIIYEQVMIAALDYGRDDLALFCLQELRRQFPGSHRVKRLTGMRFEAMERYDDAIQLYDRILQEDPTNTAARKRKIAIRKAQGKNVEAIRELNEYLEQFVGDQEAWHELAELYINEHDYAKAAFCLEELMMTNPHNHLYCQQYAEVKYTQGGLENLELSRKYFAQALKLNNRNMRALFGLYMSASHIASNPKASAKTKKDNMKYASWAASQINRAYQFAGRSKKETKYSLKAVEDMLETLQITQS [R28A] | disrupting interaction strength |
| MAKVSELYDVTWEEMRDKMRKWREENSRNSEQIVEVGEELINEYASKLGDDIWIIYEQVMIAALDYGRDDLALFCLQELRRQFPGSHRVKRLTGMRFEAMERYDDAIQLYDRILQEDPTNTAARKRKIAIRKAQGKNVEAIRELNEYLEQFVGDQEAWHELAELYINEHDAAKAAFCLEELMMTNPHNHLYCQQYAEVKYTQGGLENLELSRKYFAQALKLNNRNMRALFGLYMSASHIASNPKASAKTKKDNMKYASWAASQINRAYQFAGRSKKETKYSLKAVEDMLETLQITQS [Y171A] | with no effect |
| MAKVSELYDVTWEEMRDKMRKWREENSRNSEQIVEVGEELINEYASKLGDDIWIIYEQVMIAALDYGRDDLALFCLQELRRQFPGSHRVKRLTGMRFEAMERYDDAIQLYDRILQEDPTNTAARKRKIAIRKAQGKNVEAIRELNEYLEQFVGDQEAWHELAELYINEHDYAKAAFCLEELMMTNPHNHLYCQQYAEVKATQGGLENLELSRKYFAQALKLNNRNMRALFGLYMSASHIASNPKASAKTKKDNMKYASWAASQINRAYQFAGRSKKETKYSLKAVEDMLETLQITQS [Y200A] | disrupting interaction strength |
